These results are taken from US20220411799, “DNMT1-Specific Aptamers and Production and Uses Thereof” (National University of Singapore, published 2022).

Residue numbers refer to the chain shown, from its start.

The target of series [1] is T1, DNMT1 (Homo sapiens, UniProt P26358 P26358:1-1616). The experiment in a line: ELONA; 200 nM aptamer. The conditions noted are these: tags: His-tagged (Active Motif), full-length; GST-tagged version (Active Motif) used for SELEX; label: 5'-biotin; hairpin. How it is done: (§1) Microtiter High Binding plate (Nunc MaxiSorp) wells were coated with 30 nM of His-tagged DNMT1 (Active Motif) or HSA overnight at 4° C. All subsequent steps were performed at room temperature. After incubation, the plate was washed once with PBS and then blocked each well with 300 μl 3% BSA (AppliChem) in PBS for 2 hours. After two washes, the plate was incubated with 100 μL of 3′-biotinylated aptamers dissolved in PBS for 2 hours. Next, the plate was washed three times and streptavidin-conjugated horseradish peroxidase (HRP) (Sigma Aldrich) was added (1:10000 dilution). After 1-hour incubation, the plate was washed four times and the 3,3′,5,5′-Tetramethylbenzidine (TMB) substrate solution was added. The reaction was stopped with sulfuric acid (H₂SO₄) 0,16 M, forming a yellow reaction product that was read with microplate Reader (Thermo Scientific) at 450 nm.
The present disclosure identified three clusters of sequences with two aptamers (Ce-9 and Ce-10) representing the most enriched ones (FIG. 2a). These two aptamers present two mismatches among them and both had three mutation points compared to R5 (FIG. 2b). These sequences, together with Ce-49 that comes from a different cluster, were tested for the binding to DNMT1 purified protein by ELONA at 200 nM concentration.

In series [2] the target is T1, DNMT1. As to the kind of experiment: inhibition; all short sequences stated. To be noted: tags: His-tagged (Active Motif), full-length; GST-tagged version (Active Motif) used for SELEX; label: 3'-biotin; hairpin.
The next series concerns the target DNMT3A (UniProt Q9Y6K1 Q9Y6K1:1-912). As to the kind of experiment: BLI; specificity control.
The target in the next series is KAT5 (UniProt Q92993 Q92993:1-513). As to the kind of experiment: BLI; specificity control. To be noted: label: 3'-biotin (ELONA, pulldown); hairpin.
For another series, the target named is DNMT3B (UniProt Q9UBC3 Q9UBC3:1-853). The experiment in a line: BLI; specificity control.
The target of series [3] is T1, DNMT1. The experiment in a line: BLI; 100 nM to 2 uM; R2=0.9017; p159 states Kd not measurable. To be noted: tags: His-tagged (Active Motif), full-length; GST-tagged version (Active Motif) used for SELEX; label: 3'-biotin (ELONA, pulldown); hairpin. The procedure: Dose-response binding analyses were also performed with the 2′F-pyrimidine modified R5 (indicated as DNMT1-bait) at concentrations ranging between 100 nM and 2 μM, since no binding was detected at lower concentrations (FIG. 8a). In accordance with previous findings, no binding was detected for the mutR5 sequence which is unable to fold in stem-loop-like structures and used as a negative control (FIG. 8b).

The target in series [4] is T1, DNMT1. The experiment in a line: inhibition; in vitro DNMT1 inhibitor screening assay. To be noted: tags: His-tagged (Active Motif), full-length; GST-tagged version (Active Motif) used for SELEX; label: 3'-biotin (ELONA, pulldown); hairpin. How it is done:
FIG. 5. Functional activity of the aptamers. (a) Activity of purified DNMT1 protein was analyzed in vitro by DNMT1 inhibitor screening assay in the absence (“-”) or in the presence of indicated aptamers. Results are expressed as percentage relative to the activity of DNMT1 protein alone; b. DNMT1 inhibitor screening assay performed with K-562 nuclear extracts from untreated cells (NT), treated with a sequence unable to bind DNMT1 (control) or transfected with the respective aptamers Ce-10-2 sh and Ce-49 sh. Results are expressed as percentage relative to the activity detected in NT sample; c. expression levels 72 hours upon aptamers transfection; d, e. Cell viability of CML K562 cells (d) or NSCLC Calu-1 and A549 cells (e) transfected with indicated aptamers or Cont. for 72 hours. In (a-d) Error bars depict mean±s.d.; R5-F: R5 sequence modified with 2′F-Py.
As next step, the present disclosure tested aptamer ability to inhibit DNMT1-mediated methylation. As first attempt, the present disclosure performed an in vitro DNMT1 inhibitor screening assay. The activity of DNMT1 purified protein was measured in the absence or in the presence of R5-F or the selected short sequences. […] The functional effects of the best binders (Ce-49 sh and Ce-10-2 sh) was further characterized monitoring the in vivo DNMT1 activity by using cell nuclear extracts from chronic K562 CML cells transfected with the aptamers (FIG. 5b).

In series [5] the target is Human serum albumin (HSA) (Homo sapiens, UniProt P02768 P02768:25-609). The experiment in a line: ELONA; no significant binding up to 750 nM. To be noted: label: 3'-biotin (ELONA, pulldown); hairpin. The procedure:
as §1
To check the aptamer specificity, the present disclosure monitored the binding of Ce-49 sh and Ce-10-2 sh to the human serum albumin (HSA), the most enriched plasma protein that can bind, in a nonspecific manner, nucleic acids through its positive charge, thus limiting their use. […] As shown, no significant aptamer binding was measured up to 750 nM concentration. Binding was instead detected when aptamers were incubated with DNMT1 protein (FIG. 7).

Series [6] has as its target T1, DNMT1. As to the kind of experiment: BLI; BLItz, mutR5 background subtracted. To be noted: tags: His-tagged (Active Motif), full-length; GST-tagged version (Active Motif) used for SELEX; label: 3'-biotin (ELONA, pulldown); hairpin. The text has this:
FIG. 4. Affinity and in vivo binding of DNMT1-specific aptamers. a. Analysis of Ce-49 sh and Ce-10 sh binding affinity to DNMT1 assessed by the Blitz system (ForteBIO). The background values obtained with mutR5 used as a negative control were subtracted from the values obtained with the aptamers; REMSA showing stronger Ce-49 sh and Ce-10 sh binding ability to DNMT1 than two alternative secondary structures of the original R5F (R5modified with 2′F-Py). Unrelated RNA and DNA are two […] controls. R01(unable to form stem-loop-like structures) is used as negative control; c. Increasing amount of Ce-49 sh and Ce-10 sh biotinylated aptamers were incubated in the presence or absence of HSA purified protein. No significant difference was detected between the blank control and the aptamers by ELONA. Error bars depict mean±s.d.; d. Aptamer-mediated pull-down. Protein extract from K562 cells were incubated with the biotinylated R5-F, Ce-49 sh and Ce-10-2 sh. Bound proteins were purified on streptavidin beads and immunoblotted with anti-DNMT1 antibodies.
Next, aptamer affinity to DNMT1 was assessed by the Blitz system (ForteBIO).

DNMT3A, sequence (Q9Y6K1 whole entry, one chain of several): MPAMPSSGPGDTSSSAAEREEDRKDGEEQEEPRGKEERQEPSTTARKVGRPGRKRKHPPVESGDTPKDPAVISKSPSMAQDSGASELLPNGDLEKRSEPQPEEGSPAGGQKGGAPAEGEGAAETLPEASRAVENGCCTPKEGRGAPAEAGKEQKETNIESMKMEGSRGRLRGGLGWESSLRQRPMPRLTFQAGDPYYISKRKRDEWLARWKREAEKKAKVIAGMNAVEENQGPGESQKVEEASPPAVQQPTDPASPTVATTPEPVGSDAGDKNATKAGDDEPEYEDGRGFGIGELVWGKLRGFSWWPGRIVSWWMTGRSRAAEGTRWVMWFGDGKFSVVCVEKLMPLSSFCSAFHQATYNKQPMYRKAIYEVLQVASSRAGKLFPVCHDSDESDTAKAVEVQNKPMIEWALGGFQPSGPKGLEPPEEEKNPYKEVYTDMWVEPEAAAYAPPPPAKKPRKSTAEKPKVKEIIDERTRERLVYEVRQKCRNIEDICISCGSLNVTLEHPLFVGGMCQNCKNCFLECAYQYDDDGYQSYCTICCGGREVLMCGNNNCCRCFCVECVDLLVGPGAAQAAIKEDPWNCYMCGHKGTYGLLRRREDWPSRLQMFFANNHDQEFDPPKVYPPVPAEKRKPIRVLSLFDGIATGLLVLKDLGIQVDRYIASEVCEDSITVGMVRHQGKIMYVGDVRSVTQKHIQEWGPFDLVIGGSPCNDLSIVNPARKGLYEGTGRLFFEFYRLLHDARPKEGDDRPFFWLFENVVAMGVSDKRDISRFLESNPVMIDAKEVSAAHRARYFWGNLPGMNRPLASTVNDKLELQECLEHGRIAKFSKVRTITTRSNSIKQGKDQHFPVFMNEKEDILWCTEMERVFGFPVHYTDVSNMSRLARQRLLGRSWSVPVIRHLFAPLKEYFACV
KAT5, sequence (Q92993 whole entry, one chain of several): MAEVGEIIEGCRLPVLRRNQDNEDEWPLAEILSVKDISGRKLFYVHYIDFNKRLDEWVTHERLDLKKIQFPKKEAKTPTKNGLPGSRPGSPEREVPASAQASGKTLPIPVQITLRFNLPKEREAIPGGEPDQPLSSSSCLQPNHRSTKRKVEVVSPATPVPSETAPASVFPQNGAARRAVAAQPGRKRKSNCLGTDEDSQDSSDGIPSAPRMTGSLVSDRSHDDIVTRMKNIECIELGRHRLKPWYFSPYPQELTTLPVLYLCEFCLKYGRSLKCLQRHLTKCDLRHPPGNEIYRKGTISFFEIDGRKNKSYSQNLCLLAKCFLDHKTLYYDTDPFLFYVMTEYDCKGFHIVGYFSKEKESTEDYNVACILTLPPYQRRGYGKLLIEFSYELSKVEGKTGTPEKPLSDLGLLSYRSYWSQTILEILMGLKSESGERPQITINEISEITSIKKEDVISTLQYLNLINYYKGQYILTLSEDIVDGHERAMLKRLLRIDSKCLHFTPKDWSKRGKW
T1 sequence (P26358 whole entry, one chain of several): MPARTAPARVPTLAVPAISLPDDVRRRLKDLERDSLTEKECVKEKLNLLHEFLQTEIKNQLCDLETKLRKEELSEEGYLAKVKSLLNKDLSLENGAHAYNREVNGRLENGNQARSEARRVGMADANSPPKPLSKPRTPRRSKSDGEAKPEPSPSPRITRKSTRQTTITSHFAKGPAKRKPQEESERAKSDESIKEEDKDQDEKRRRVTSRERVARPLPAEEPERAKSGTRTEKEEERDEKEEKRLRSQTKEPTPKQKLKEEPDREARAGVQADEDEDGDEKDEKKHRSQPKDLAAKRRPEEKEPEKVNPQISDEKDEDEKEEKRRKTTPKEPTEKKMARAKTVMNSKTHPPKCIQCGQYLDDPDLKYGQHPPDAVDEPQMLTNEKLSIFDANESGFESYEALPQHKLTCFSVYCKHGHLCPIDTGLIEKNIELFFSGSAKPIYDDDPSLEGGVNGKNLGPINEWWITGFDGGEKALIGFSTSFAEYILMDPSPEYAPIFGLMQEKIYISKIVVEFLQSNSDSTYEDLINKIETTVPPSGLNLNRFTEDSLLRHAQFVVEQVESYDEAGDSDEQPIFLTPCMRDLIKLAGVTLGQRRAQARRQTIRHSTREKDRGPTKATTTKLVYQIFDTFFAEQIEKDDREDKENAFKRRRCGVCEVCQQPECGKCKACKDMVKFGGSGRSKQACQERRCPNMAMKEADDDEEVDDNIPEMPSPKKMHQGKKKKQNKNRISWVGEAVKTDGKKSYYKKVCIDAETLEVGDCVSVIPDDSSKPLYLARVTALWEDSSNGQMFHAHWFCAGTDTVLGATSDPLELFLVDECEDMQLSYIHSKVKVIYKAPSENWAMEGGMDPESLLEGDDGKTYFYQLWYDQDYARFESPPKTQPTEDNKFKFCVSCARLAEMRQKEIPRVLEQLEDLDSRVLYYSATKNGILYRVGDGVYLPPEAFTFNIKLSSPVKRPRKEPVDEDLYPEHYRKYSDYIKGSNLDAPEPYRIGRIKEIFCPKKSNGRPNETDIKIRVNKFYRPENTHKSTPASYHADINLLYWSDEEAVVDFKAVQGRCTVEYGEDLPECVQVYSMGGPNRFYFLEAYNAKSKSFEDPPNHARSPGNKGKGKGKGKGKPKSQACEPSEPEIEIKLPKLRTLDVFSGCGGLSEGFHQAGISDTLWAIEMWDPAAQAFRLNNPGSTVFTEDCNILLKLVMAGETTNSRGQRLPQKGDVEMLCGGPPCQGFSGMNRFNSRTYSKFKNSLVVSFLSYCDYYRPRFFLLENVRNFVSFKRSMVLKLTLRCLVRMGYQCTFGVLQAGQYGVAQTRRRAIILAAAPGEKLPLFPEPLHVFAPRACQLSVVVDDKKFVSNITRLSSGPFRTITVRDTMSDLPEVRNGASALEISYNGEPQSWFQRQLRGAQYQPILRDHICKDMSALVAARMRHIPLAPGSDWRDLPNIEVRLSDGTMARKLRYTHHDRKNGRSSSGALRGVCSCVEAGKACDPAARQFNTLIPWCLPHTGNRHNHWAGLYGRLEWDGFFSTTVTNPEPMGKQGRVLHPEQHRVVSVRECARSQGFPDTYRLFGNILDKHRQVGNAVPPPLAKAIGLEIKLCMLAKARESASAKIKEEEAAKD
Human serum albumin (HSA), sequence (P02768 25-609, one chain of several): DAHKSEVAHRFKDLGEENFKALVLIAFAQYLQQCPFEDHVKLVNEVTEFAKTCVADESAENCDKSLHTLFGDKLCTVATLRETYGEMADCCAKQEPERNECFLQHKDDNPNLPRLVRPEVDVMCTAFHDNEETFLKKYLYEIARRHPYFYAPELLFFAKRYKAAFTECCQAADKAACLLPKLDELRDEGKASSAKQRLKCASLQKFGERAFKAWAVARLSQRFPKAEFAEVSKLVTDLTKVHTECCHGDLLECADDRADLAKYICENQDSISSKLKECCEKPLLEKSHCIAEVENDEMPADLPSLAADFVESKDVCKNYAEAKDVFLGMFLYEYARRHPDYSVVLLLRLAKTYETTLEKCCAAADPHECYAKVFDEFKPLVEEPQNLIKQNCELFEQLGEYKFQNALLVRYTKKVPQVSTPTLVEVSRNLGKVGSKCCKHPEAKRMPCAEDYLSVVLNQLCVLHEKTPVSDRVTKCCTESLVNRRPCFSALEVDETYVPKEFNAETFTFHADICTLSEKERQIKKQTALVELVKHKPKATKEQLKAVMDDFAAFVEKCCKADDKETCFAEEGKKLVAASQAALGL

B1: Ce-9 (long, 61-mer) (ssRNA)
RNA: GGGCUGAAGGGGUUACUGGGCUGAGCUCAUGGCGAGGCUUCUUAUCUGCCCCGGGGAGGAG
modifications: 2'-F pyrimidines
As for B1, in the series with DNMT1 [1], the binding result is “binds”.

B2: Ce-10 (long, 61-mer) (ssRNA)
RNA: B1 RNA with C26G, C28A
modifications: 2'-F pyrimidines
For B2, in the series with DNMT1 [1], the binding result is “binds”.

Regarding AGGUAAUGGCGAGGCUUCUUAUCUG (ssRNA, 2'-F pyrimidines) [Ce-10-1 sh], the activity in the series with DNMT1 [2] was around 40 % inhibition.

With UGGGCUGAGCUCAUGGCGAGGCUUC (ssRNA, 2'-F pyrimidines) [Ce-9 sh], in the series with DNMT1 [2], the activity was around 40 % inhibition.

In the series with DNMT1 [2], CUGAGGUAAUGGCGAGGCUUCU (ssRNA, 2'-F pyrimidines (listed with T in the sequence, described as RNA)) [Ce-10-R5] showed an activity of around 40 % inhibition.

As to CUGAGGCCUUGGCGAGGCUUCU (ssRNA, 2'-F pyrimidines) [R5-F (DNMT1 bait)], the binding result in the series with DNMT3A, in the series with KAT5 and with DNMT3B was “no binding” each time. The molecule further displayed a Kd in the series with DNMT1 [3] of 600 nM. The same molecule had an activity with DNMT1 [4] of around 40 % inhibition.

On to UUACUGGGCUGAGGUAAUGGCGAGG (ssRNA, 2'-F pyrimidines) [Ce-10-2 sh], for which the binding result (with DNMT3A; with KAT5; in the series with DNMT3B; in [5]) was “no binding” each time. In the series with DNMT1 [4], the activity is around 40 % inhibition. In the series with DNMT1 [6], this molecule had a Kd of around 66 nM.

Take CUGAGGCCUAACGAAGGCUUCU (ssRNA, 2'-F pyrimidines) [Ce-49 sh]: the binding result (with DNMT3A; with KAT5; with DNMT3B; in [5]) was “no binding” each time. In addition, the activity with DNMT1 [4] is around 40 % inhibition. Also, the Kd in the series with DNMT1 [6] is around 79 nM.

B3: Ce-49 (long, 61-mer) (ssRNA)
RNA: GGGCUGAAGGGGUUACUGGGCUGAGGCCUAACGAAGGCUUCUUAUCUGCCCCGGGGAGGAG
modifications: 2'-F pyrimidines
On to B3, for which, in the series with DNMT1 [1], the binding result was “binds”.
